{"source": "paper PMC4355418", "binders": {"B1": {"name": "SUMO-tagged ACR4 KC (sACR4 KC), ACR4 intracellular domain lacking the JMD, Q9LX29 LLSLL motif replaced with AAAAA (residue numbers not printed) (protein)", "chain": "FKEESIVGKGSFSCVYKGVLRDGTTVAVKRAIMSSDKQKNSNEFRTELDLLSRLNHAHAAAAAGYCEECGERLLVYEFMAHGSLHNHLHGKNKALKEQLDWVKRVTIAVQAARGIEYLHGYACPPVIHRDIKSSNILIDEEHNARVADFGLSLLGPVDSGSPLAELPAGTLGYLDPEYYRLHYLTTKSDVYSFGVLLLEILSGRKAIDMHYEEGNIVEWAVPLIKAGDINALLDPVLKHPSEIEALKRIVSVACKCVRMRGKDRPSMDKVTTALERALAQLMGNPSSEQPILPTEVVLGSSRMHKKSWRIGSKRSGSENTEFRGGSWITFPSVTSSQRRKSSASEGDVAEEEDEGRKQQEALRSLEEEIGPASPGQSLFLHHNF"}}, "test_in_all_cases": "peptide binding assay on Ni2+ coated plate (absorbance at 405 nm)", "key": {"[1]": {"biological_target": "T1, CRK1 hC peptide (helix-C region of the CRK1 kinase domain)", "T1 chain": "HRRADKDSAFVNELES", "conditions": "chain shown with the change; protein immobilized on a Ni2+ coated plate; triplicate; SUMO control absorbance subtracted; parent: est. 0.39; read off a plot"}, "[2]": {"biological_target": "T2, pJMD1 peptide (JMD1 with phosphorylated Ser475)", "T2 chain": "DTRSSKDSAFTKDNG", "conditions": "chain shown with the change; protein immobilized on a Ni2+ coated plate; triplicate; SUMO control absorbance subtracted; parent: est. 0.29; read off a plot"}, "[3]": {"biological_target": "T3, JMD1 peptide of the ACR4 juxtamembrane domain", "T3 chain": "DTRSSKDSAFTKDNG", "conditions": "chain shown with the change; protein immobilized on a Ni2+ coated plate; triplicate; SUMO control absorbance subtracted; parent: est. 0.14; read off a plot"}}}
{"binder": "B1", "values": [{"measurement": "response", "setting": "[1]", "result": 0.3, "unit": "A405"}, {"measurement": "response", "setting": "[2]", "result": 0.17, "unit": "A405"}, {"measurement": "response", "setting": "[3]", "result": 0.042, "unit": "A405"}]}
